# Reference: patent US11618906B2, “Hydroxylation techniques” (HYPHA DISCOVERY LTD., priority 2018, dated 2023)
# Assays:
# Type in all cases: biochemical
# [1] = Metabolism of 4-pyrrolidylacetophenone by P450 aluC09 and mutants; conditions: percent of substrate being converted; 0.125 mg/ml, 27° C., 16-20 hours; [CYP] per enzyme as in Table 8
# Method in brief: (§1)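 Read-out was substrate conversion by UPLC-MS after acetonitrile extraction. Reactions had contained lyophilised aluC09 mutant enzymes with ferredoxin and ferredoxin reductase partners, substrate at 0.125 mg/ml, and a glucose-6-phosphate dehydrogenase NADPH-regenerating system, shaken 16-20 hours at 27° C.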
# [2] = Metabolism of epothilone B by P450 aluC09 and mutants; conditions: percent of substrate being converted; 0.125 mg/ml, 27° C., 16-20 hours; [CYP] per enzyme as in Table 8
# Method in brief: as §1
# [3] = Hydroxylation of aceclofenac catalysed by cytochrome P450 aluC09 and mutants; conditions: for Aceclofenac (Substrate) (1.80 mins) / Dihydroxy-Aceclofenac (1.42 mins) / Hydroxy-Aceclofenac (1) (1.64 min) / Hydroxy-Aceclofenac (2) (1.60 min): % by UV peak area at 275 nm, 0.125 mg/ml substrate, 27° C., 16-20 hours; for Hydroxylated Ratio 2:1: aceclofenac, ratio of UV peak areas at 275 nm
# Method in brief: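 Conversion was assessed by UPLC-MS (UV and MS detection) after acetonitrile extraction of reactions run 16-20 h at 27° C, shaking. Reactions contained substrate at 0.125 mg/ml, P450 mutant plus ferredoxin and reductase partners, 1 mM NADP with glucose-6-phosphate regeneration, in phosphate buffer pH 7.4.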
# [4] = Metabolism of ritonavir by P450 aluC09 and mutants; conditions: percent of substrate being converted; 0.125 mg/ml, 27° C., 16-20 hours; [CYP] per enzyme as in Table 8
# Method in brief: as §1
# [5] = Metabolism of ruxolitinib by P450 aluC09 and mutants; conditions: percent of substrate being converted; 0.125 mg/ml, 27° C., 16-20 hours; [CYP] per enzyme as in Table 8
# Method in brief: as §1
# [6] = Metabolism of valsartan by P450 aluC09 and mutants; conditions: percent of substrate being converted; 0.125 mg/ml, 27° C., 16-20 hours; [CYP] per enzyme as in Table 8
# Method in brief: as §1
# [7] = Hydroxylation of flufenamic acid catalysed by cytochrome P450 aluC09 and mutants; conditions: for Flufenamic Acid (Substrate) 1.93 mins / Hydroxy-Flufenamic Acid (1) 1.69 mins / Hydroxy-Flufenamic Acid (2) 1.65 mins: % by UV peak area at 275 nm, 0.125 mg/ml substrate, 27° C., 16-20 hours; for Hydroxylated Ratio 1:2: flufenamic acid, ratio of UV peak areas at 275 nm
# Method in brief: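 Conversion measured by UPLC-MS (UV and MS) after acetonitrile extraction, following 16-20 h shaking at 27° C. Reaction: 0.125 mg/ml substrate, P450 mutant plus ferredoxin aluF03 and reductase SCF15A, 5 mM G6P, 1 mM NADP, 2 U/ml G6PDH, pH 7.4 phosphate with 5 mM MgCl2.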
# [8] = O-demethylation of indomethacin catalysed by cytochrome P450 aluC09 and mutants; conditions: % by UV peak area at 275 nm; 0.125 mg/ml substrate, 27° C., 16-20 hours
# Method in brief: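 Conversion was quantified by UPLC-UV/MS after acetonitrile extraction of 16-20 h, 27° C. shaken reactions. These contained 0.125 mg/ml substrate, mutant P450 with partner ferredoxin and reductase, 1 mM NADP plus 5 mM G6P and 2 U/ml G6PDH, in pH 7.4 phosphate with 5 mM MgCl2.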
# [9] = Metabolism of tofacitinib by P450 aluC09 and mutants; conditions: percent of substrate being converted; 0.125 mg/ml, 27° C., 16-20 hours; [CYP] per enzyme as in Table 8
# Method in brief: as §1
# [10] = Metabolism of BIRB796 by P450 aluC09 and mutants; conditions: percent of substrate being converted; 0.125 mg/ml, 27° C., 16-20 hours; [CYP] per enzyme as in Table 8
# Method in brief: as §1
# [11] = Hydroxylation / de-N-ethylation of napropamide catalysed by cytochrome P450 aluC09 and mutants; conditions: for Desethyl Napropamide (1.62 min) / Desethyl-hydroxy-Napropamide (1.41 min) / Hydroxy-Napropamide (1) (1.53 min) / Hydroxy-Napropamide (2), (1.52 min) / M-2Da (unidentified) (1.89 min) / Napropamide (substrate): % by UV peak area at 275 nm, 0.125 mg/ml substrate, 27° C., 16-20 hours; for Hydroxylated Ratio 2:1: napropamide, ratio of UV peak areas
# Method in brief: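 Conversion of napropamide (0.125 mg/ml) to hydroxylated and de-ethylated metabolites was measured by UPLC-MS after acetonitrile extraction. Reactions ran 16-20 h at 27° C in pH 7.4 potassium phosphate (50 mM) with 5 mM MgCl2, 1 mM NADP, 5 mM G6P and 2 UN/ml G6PDH. Enzymes were lyophilised P450 aluC09 variants, ferredoxin aluF03 and ferredoxin reductase SCF15A.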
# [12] = Metabolism of bosentan by P450 aluC09 and mutants; conditions: percent of substrate being converted; 0.125 mg/ml, 27° C., 16-20 hours; [CYP] per enzyme as in Table 8
# Method in brief: as §1
# [13] = Hydroxylation of diclofenac catalysed by cytochrome P450 aluC09 and mutants (UPLC-PDA-MS); conditions: for 4′,5-dihydroxy-diclofenac 1.38 mins / 4′-hydroxy-diclofenac (1) 1.62 mins / 5-hydroxy-diclofenac (2) 1.58 mins / Diclofenac (Substrate) 1.81 mins: % by UV peak area at 275 nm, 0.125 mg/ml substrate, 27° C., 16-20 hours; for Hydroxylated Ratio hydroxy 1:hydroxy 2: diclofenac, ratio of UV peak areas at 275nm
# Method in brief: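 Conversion of diclofenac (0.125 mg/ml) to hydroxy metabolites measured by UPLC with UV and MS detection, identities confirmed by authentic samples. Reactions used P450 aluC09 variants with ferredoxin aluF03, reductase SCF15A and an NADP/G6P/G6PDH recycling system, pH 7.4 phosphate, 27° C, 16-20 hours.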
# [14] = Metabolism of buparvaquone by P450 aluC09 and mutants; conditions: percent of substrate being converted; 0.125 mg/ml, 27° C., 16-20 hours; [CYP] per enzyme as in Table 8
# Procedure: Lyophilised material of mutants of CYP450aluC09, ferredoxinaluF03 and ferredoxin reductaseSCF15A was made as described in examples 3 and 4 and suspended in water (0.5 mL per vial) and biocatalysis was performed at 27° C. in the following conditions: 50 mM potassium phosphate pH 7.4, 5 mM MgCl2, 0.125 mg/ml substrate compound such as diclofenac (Sigma-Aldrich, UK), Aceclofenac (Tokyo Chemical Industry UK Ltd, UK), Indomethacin (Sigma-Aldrich, UK), Flufenamic acid (Sigma-Aldrich, UK), Napropamide (Sigma-Aldrich, UK), celecoxib (LC Laboratories, USA), valsartan (Tokyo Chemical Industry UK Ltd, UK), ruxolitinib (LC Laboratories, USA), 4-pyrrolidylacetophenone (Sigma-Aldrich, UK), tofacitinib (LC Laboratories, USA), bosentan (CarboSynth Ltd, UK), buparvaquone (MedChemtronica, Sweden), BIRB796 (Stratech Scientific Limited, UK), epothilone B (LC Laboratories, USA), ritonavir (Tokyo Chemical Industry UK Ltd, UK) or tivantinib (MedChemtronica, Sweden), P450AluC09 (concentration as in Table 8), 5 mM G6P, 1 mM NADP, 2 UN/ml G6PDH in a final volume of 100 μL. After 16-20 hours at 200 rpm (5 cm orbital shaker, Kuhner AG, Switzerland), reactions were extracted with an equal volume of acetonitrile, centrifuged to remove precipitated proteins and conversion assessed by UPLC-MS analysis.
# However, of particular note when considering P450 concentration are the results for mutants M12, M20 and M34, as well as the deleterious impact on the range of substrate utility in mutants M39 and M40.
# [15] = Metabolism of tivantinib by P450 aluC09 and mutants; conditions: percent of substrate being converted; 0.125 mg/ml, 27° C., 16-20 hours; [CYP] per enzyme as in Table 8
# Method in brief: as §1
# [16] = Metabolism of celecoxib by P450 aluC09 and mutants; conditions: percent of substrate being converted; 0.125 mg/ml, 27° C., 16-20 hours; [CYP] per enzyme as in Table 8
# Method in brief: as §1
Molecule,% conversions (avg) 4-pyrrolidylacetophenone [1] [%],% conversions (avg) Epothilone B [2] [%],Aceclofenac (Substrate) (1.80 mins) [3] [%],Dihydroxy-Aceclofenac (1.42 mins) [3] [%],Hydroxy-Aceclofenac (1) (1.64 min) [3] [%],Hydroxy-Aceclofenac (2) (1.60 min) [3] [%],Hydroxylated Ratio 2:1 [3],% conversions (avg) Ritonavir [4] [%],% conversions (avg) Ruxolitinib [5] [%],% conversions (avg) Valsartan [6] [%],Flufenamic Acid (Substrate) 1.93 mins [7] [%],Hydroxy-Flufenamic Acid (1) 1.69 mins [7] [%],Hydroxy-Flufenamic Acid (2) 1.65 mins [7] [%],Hydroxylated Ratio 1:2 [7],Indomethacin (1.74 mins) [8] [%],O-demethyl-Indomethacin (1.52 mins) [8] [%],% conversions (avg) Tofacitinib [9] [%],% conversions (avg) BIRB796 [10] [%],Desethyl Napropamide (1.62 min) [11] [%],Desethyl-hydroxy-Napropamide (1.41 min) [11] [%],further results
"aluC09M38: cytochrome P450 aluC09 mutant T291H; amino acid sequence SEQ ID NO: 64 (protein, listed as Amycolatopsis lurida) MTDVEETTATLPLARKCPFSPPPEYERLRRESPVSRVGLPSGQTAWALTRLEDIREMLSSPHFSSDRQSPSFPLMVARQIRREDKPFRPSLIAMDPPEHSRARRDVVGEFTVKRMKALQPRIQQIVDEHLDALLAGPKPADLVQALSLPVPSLVICELLGVPYSDHEFFQSCSSRMLSREVTAEERMTAFEQLENYLDELVTKKEANATEDDLLGRQILKQRETGEADHGELVGLAFLLLIAGHETTANMISLGTVTLLENPDQLAKIKADPGKTLAAIEELLRVFTIAEHATSRFATADVEIGGTLIRAGEGVVGLSNAGNHDPDGFENPDTFDIERGARHHVAFGFGVHQCLGQNLARLELQIVFDTLFRRVPGLRIAVPVDELPFKHDSTIYGLHALPVTW",2.9,13.4,29.8,28.9,11.9,29.4,2.5,64.2,30.8,61.9,95.3,2.9,1.8,1.6,83.8,16.2,0.7,13.6,45.6,3.8,"Hydroxy-Napropamide (1) (1.53 min) [11]: 1.0%; Hydroxy-Napropamide (2), (1.52 min) [11]: 3.9%; M-2Da (unidentified) (1.89 min) [11]: 6.2%; Napropamide (substrate) [11]: 41.1%; Hydroxylated Ratio 2:1 [11]: 3.9; % conversions (avg) Bosentan [12]: 98.7%; 4′,5-dihydroxy-diclofenac 1.38 mins [13]: 2.9%; 4′-hydroxy-diclofenac (1) 1.62 mins [13]: 44.5%; 5-hydroxy-diclofenac (2) 1.58 mins [13]: 18.9%; Diclofenac (Substrate) 1.81 mins [13]: 35.6%; Hydroxylated Ratio hydroxy 1:hydroxy 2 [13]: 2.4; % conversions (avg) Buparvaquone [14]: 4.1%; % conversions (avg) Tivantinib [15]: 27.6%; % conversions (avg) Celecoxib [16]: 2.3%"
"aluC09: wild-type cytochrome P450 aluC09 from Amycolatopsis lurida NRRL-2430; amino acid sequence SEQ ID NO: 2 (protein, listed as Amycolatopsis lurida) MTDVEETTATLPLARKCPFSPPPEYERLRRESPVSRVGLPSGQTAWALTRLEDIREMLSSPHFSSDRQSPSFPLMVARQIRREDKPFRPSLIAMDPPEHSRARRDVVGEFTVKRMKALQPRIQQIVDEHLDALLAGPKPADLVQALSLPVPSLVICELLGVPYSDHEFFQSCSSRMLSREVTAEERMTAFEQLENYLDELVTKKEANATEDDLLGRQILKQRETGEADHGELVGLAFLLLIAGHETTANMISLGTVTLLENPDQLAKIKADPGKTLAAIEELLRVFTIAETATSRFATADVEIGGTLIRAGEGVVGLSNAGNHDPDGFENPDTFDIERGARHHVAFGFGVHQCLGQNLARLELQIVFDTLFRRVPGLRIAVPVDELPFKHDSTIYGLHALPVTW",5.6,18.4,18.0,36.5,5.7,39.8,7.0,59.6,46.6,28.9,93.1,4.5,2.4,1.9,83.6,16.4,1.4,13.4,44.8,5.4,"Hydroxy-Napropamide (1) (1.53 min) [11]: 2.0%; Hydroxy-Napropamide (2), (1.52 min) [11]: 4.0%; M-2Da (unidentified) (1.89 min) [11]: 6.6%; Napropamide (substrate) [11]: 39.3%; Hydroxylated Ratio 2:1 [11]: 2.1; % conversions (avg) Bosentan [12]: 98.8%; 4′,5-dihydroxy-diclofenac 1.38 mins [13]: 3.1%; 4′-hydroxy-diclofenac (1) 1.62 mins [13]: 27.0%; 5-hydroxy-diclofenac (2) 1.58 mins [13]: 26.2%; Diclofenac (Substrate) 1.81 mins [13]: 45.2%; Hydroxylated Ratio hydroxy 1:hydroxy 2 [13]: 1.0; % conversions (avg) Buparvaquone [14]: 14%; % conversions (avg) Tivantinib [15]: 41.4%; % conversions (avg) Celecoxib [16]: 2.5%"
"aluC09M12: cytochrome P450 aluC09 mutant T291E; amino acid sequence SEQ ID NO: 12 (protein, listed as Amycolatopsis lurida) MTDVEETTATLPLARKCPFSPPPEYERLRRESPVSRVGLPSGQTAWALTRLEDIREMLSSPHFSSDRQSPSFPLMVARQIRREDKPFRPSLIAMDPPEHSRARRDVVGEFTVKRMKALQPRIQQIVDEHLDALLAGPKPADLVQALSLPVPSLVICELLGVPYSDHEFFQSCSSRMLSREVTAEERMTAFEQLENYLDELVTKKEANATEDDLLGRQILKQRETGEADHGELVGLAFLLLIAGHETTANMISLGTVTLLENPDQLAKIKADPGKTLAAIEELLRVFTIAEEATSRFATADVEIGGTLIRAGEGVVGLSNAGNHDPDGFENPDTFDIERGARHHVAFGFGVHQCLGQNLARLELQIVFDTLFRRVPGLRIAVPVDELPFKHDSTIYGLHALPVTW",30.8,50.8,25.2,27.8,7.9,39.1,4.9,31.9,48.9,38,95.9,2.0,2.1,0.9,94.6,5.4,0,23,46.0,9.7,"Hydroxy-Napropamide (1) (1.53 min) [11]: 2.5%; Hydroxy-Napropamide (2), (1.52 min) [11]: 5.3%; M-2Da (unidentified) (1.89 min) [11]: 5.8%; Napropamide (substrate) [11]: 34.1%; Hydroxylated Ratio 2:1 [11]: 2.1; % conversions (avg) Bosentan [12]: 100%; 4′,5-dihydroxy-diclofenac 1.38 mins [13]: 1.8%; 4′-hydroxy-diclofenac (1) 1.62 mins [13]: 30.3%; 5-hydroxy-diclofenac (2) 1.58 mins [13]: 10.8%; Diclofenac (Substrate) 1.81 mins [13]: 58.0%; Hydroxylated Ratio hydroxy 1:hydroxy 2 [13]: 2.8; % conversions (avg) Buparvaquone [14]: 9.7%; % conversions (avg) Tivantinib [15]: 7.2%; % conversions (avg) Celecoxib [16]: 5.4%"
